Measured values as given in article PMC4529168, “Molecular Cloning, Heterologous Expression, and Functional Characterization of an NADPH-Cytochrome P450 Reductase Gene from Camptotheca acuminata, a Camptothecin-Producing Plant” (PLoS ONE, 2015).

System: T1, NC(=O)C1=CN([C@@H]2O[C@H](COP(=O)(O)OP(=O)(O)OC[C@H]3O[C@@H](n4cnc5c(N)ncnc54)[C@H](OP(=O)(O)O)[C@@H]3O)[C@@H](O)[C@H]2O)C=CC1
T1 construct: N-terminal 69 residues (membrane anchor) removed, His6-tag kept (probably N-terminal, 660 residues with tag), expressed in E. coli BL21(DE3), Ni-NTA purified
Assay: purified protein
Assay type: biochemical, Camptotheca acuminata
Conditions: 75 μM equine heart cytochrome c, 50 mM Tris-HCl pH 7.4, 25°C

Chain of tCamCPR (Camptotheca acuminata) (chain, as listed by the source): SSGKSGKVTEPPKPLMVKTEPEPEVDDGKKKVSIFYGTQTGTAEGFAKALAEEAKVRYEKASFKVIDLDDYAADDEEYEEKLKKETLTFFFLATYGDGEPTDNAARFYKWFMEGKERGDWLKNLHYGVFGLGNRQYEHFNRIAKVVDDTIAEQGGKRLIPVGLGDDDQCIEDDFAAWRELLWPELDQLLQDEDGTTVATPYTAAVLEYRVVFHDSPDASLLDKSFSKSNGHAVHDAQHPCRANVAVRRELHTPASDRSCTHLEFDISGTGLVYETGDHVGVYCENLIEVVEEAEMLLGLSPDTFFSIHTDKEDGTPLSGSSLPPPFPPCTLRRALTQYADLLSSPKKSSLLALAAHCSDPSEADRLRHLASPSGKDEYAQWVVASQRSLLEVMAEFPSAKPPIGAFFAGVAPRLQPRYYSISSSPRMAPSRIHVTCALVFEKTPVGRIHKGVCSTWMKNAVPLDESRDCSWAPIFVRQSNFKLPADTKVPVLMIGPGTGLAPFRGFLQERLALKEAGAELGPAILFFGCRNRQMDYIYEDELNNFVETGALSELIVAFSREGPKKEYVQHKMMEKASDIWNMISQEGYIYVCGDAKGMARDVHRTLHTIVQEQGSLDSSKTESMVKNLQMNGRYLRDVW

tCamCPR (Camptotheca acuminata)
Km: 18.7 ± 3.6 µM
